# Patent US20260042834A1, “ANTI-CORTICOTROPIN-RELEASING HORMONE ANTIBODIES AND POLYCYSTIC OVARY SYNDROME” (HBM ALPHA THERAPEUTICS, INC., priority 2022, published 2026)
# Where a chain is given by its changes, count along the chain named. Like-named read-outs stand apart in the source and are kept apart here.
# T1: biotinylated CRH (Homo sapiens, UniProt P06850)
# T1 construct: purchased GL Biochem 784751
# T1 sequence (P06850 154-194): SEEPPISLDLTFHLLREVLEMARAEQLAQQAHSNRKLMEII
# B1: PR302334-8: humanized variant of Series 9 mAb PR302334; VH SEQ ID NO: 273, VL SEQ ID NO: 332 (antibody, V domains shown)
# VH: EVQLVESGGGLVQPGGSLRLSCAASGFTFSTYAMSWVRQAPGKGLEWVASIRSGGTTYYPDSVKGRFTISRDNSKNTLYLQMNSLRAEDTAVYYCTRGIDWGQGTTVTVSS
# VL: EIVMTQSPATLSVSPGERATLSCKASQSVNNDVAWYQQKPGQAPRLLIYYASNRYTGIPARFSGSGSGTEFTLTISSLQSEDLAVYFCQQDYSSWTFGGGTKVEIK
# modifications: PR302334-10 VH, PR302334-11 VH, PR302334-12 VH, PR302334-14 VH,PR302334-7 VH, PR302334-8 VH, PR302334-9 VH; PR302334-22 VL, PR302334-2 VL, PR302334-8 VL
# B2: PR302334-27: humanized variant of Series 9 mAb PR302334; VH SEQ ID NO: 277, VL SEQ ID NO: 330 (antibody, V domains shown)
# VH: B1 VH with T77S
# VL: DIQMTQSSLSASVSLGDRVTITCKASQSVNNDVAWYQQKPGKAPRLLIYYASNRYTGVPSRFSGSGSGTDFTFTISSLQPEDLATYFCQQDYSSWTFGGGTKVEIK
# modifications: PR302334-18 VH, PR302334-26 VH, PR302334-27 VH; PR302334-12 VL, PR302334-25 VL, PR302334-27 VL, PR302334-6 VL
# B3: PR302334-10: humanized variant of Series 9 mAb PR302334; VH SEQ ID NO: 273, VL SEQ ID NO: 328 (antibody, V domains shown)
# VH: B1 VH
# VL: DIVMTQSPDSLAVSLGERATINCKASQSVNNDVAWYQQKPGQPPRLLIYYASNRYTGVPDRFSGSGSGTDFTLTISSLQAEDLAVYFCQQDYSSWTFGGGTKVEIK
# modifications: PR302334-10 VH, PR302334-11 VH, PR302334-12 VH, PR302334-14 VH,PR302334-7 VH, PR302334-8 VH, PR302334-9 VH; PR302334-10 VL, PR302334-24 VL, PR302334-26 VL, PR302334-4 VL
# B4: PR302309-18: humanized variant of Series 7 mAb PR302309; VH SEQ ID NO: 263, VL SEQ ID NO: 318 (antibody, V domains shown)
# VH: QVQLVQSGAEVKKPGASVKVSCKASGYTFTNYGMNWVRQAPGQRLEWMGWINTYTGEPIYTDDFKGRVTITRDTSASTAYMELSSLRSEDTAVYYCARSTMITTGGVFAYWGQGTLVTVSS
# VL: DVVMTQSPLSLPVTLGQPASISCRSSQTIVHSDGNTYLEWYQQRPGQSPRLLIYKVSNRFSGVPDRFSGSGSGTDFTLKISRVEAEDLGVYYCFQGSHVPWTFGGGTKVEIK
# modifications: PR302309-15 VH, PR302309-18 VH; PR302309-17 VL, PR302309-18 VL, PR302309-19 VL, PR302309-2 VL,PR302309-8 VL
# B5: PR302341: Series 10 anti-CRH mAb from immunized wildtype mice; VH SEQ ID NO: 280, VL SEQ ID NO: 339 (antibody, V domains shown)
# VH: EVQLQQSGPELVKPGASVKMSCKASGYTFTDYFMKWVKQSHGESLEWIGVINPNNGDIFYNQKFKGKATLTVDKSSSTAFMQLNSLTSEDSAVYSCARGTDRALFAYWGQGTLVAVSA
# VL: DVLMTQTPLSLPVSLGDQASISCRSGQSIVHSDGNTYLEWYLQRPGQSPRLLIYKVSNRFSGVPDRFSGSGSGTDFTLKISRVGAEDLGIYYCFQGSHIPWTFGGGTKLEVK
# modifications: PR302341-1 VH, PR302341-2 VH, PR302341-3 VH, PR302341-4 VH,PR302341-5 VH, PR302341-6 VH, PR302341 VH; PR302341-13 VL, PR302341-14 VL, PR302341-15 VL, PR302341-16 VL,PR302341-17 VL, PR302341-18 VL, PR302341 VL
# What was measured:
# human CRHR2 = test: CRH-induced luciferase reporter blocking assay, CHO-CRE-hCRHR2 cells; type: cell-based
# Experimental: (§1) To create CHO-CRE-hCRHR1, -hCRHR2, -mCRHR1, and -mCRHR2 reporter cell lines, pcDNA3.1-hCRHR1, -hCRHR2, -mCRHR1, and -mCRHR2 were introduced into CHO-CRE cells established above by electroporation as described above. Selection antibiotics hygromycin at 500 μg/ml and G418 at 1,000 μg/ml were employed. Individual established stable cell lines were characterized by both CRH and forskolin stimulation.
# Activated GPCR proteins increase production of the intracellular cAMP. CHO-CRE-human CRHR1 stable clone 11 was generated by introduction of pcDNA3.1-human CRHR1 under the selection of G418 and hygromycin. Human CRHR1 expression in CHO-CRE-hCRHR1 Clone 11 was confirmed by flow cytometry (data not shown). To further validate that the cell line was functional, CHO-CRE-hCRHR1 Clone 11 cells were treated with forskolin and CRH peptide. […] Subsequently CHO-CRE-hCRHR2 Clone 32, -mCRHR1 Clone 22, and -mCRHR2 Clone 8 cell lines were established using similar methodology and validated with CRH treatment (data not shown).
# Blocking CRHR1 by small molecules or neutralization of CRH peptide can reduce luciferase expression if the CRH-CRHR1 system works in CHO-CRE-hCRHR1 cells. Antalarmin, a small molecule CRHR1 antagonist, blocked CRH-mediated luciferase expression in CHO-CRE-hCRHR1 Clone 11 (data not shown). Furthermore, sheep anti-CRH polyclonal antibody reduced CRH-mediated luciferase expression in these cells (data not shown). Likewise, sheep anti-CRH polyclonal antibody blocked CRH-mediated luciferase expression in CHO-CRE-hCRHR2, CHO-CRE-mCRHR1, and CHO-CRE-mCRHR2 cells (data not shown).
# (§2) Cells were digested by trypsin-EDTA (Life technologies, Cat #:12604-013), centrifuged at 1,000 rpm for 5 min, resuspended in growth medium, counted using a cell counter, seeded at a concentration of 5,000 cells per 100 μl in 96-well flat plates, and incubated overnight. 50 μl of 4× serially diluted antibodies was added (8 points, 1/4 diluted by growth medium) to plates containing CHO-CRE-hCRHR1 cells, and 50 μl of 4×CRH (4× is 2 nM, final is 0.5 nM) was added. Similarly, 4×CRH (4× is 0.4 nM, final is 0.1 nM) was added to CHO-CRE-hCRHR2 cells and CHO-CRE-mCRHR1 cells, and 4×CRH (4× is 20 nM, final is 5 nM) was added to CHO-CRE-mCRHR2 cells. Next, plates were incubated 4-6 hours at 37° C. in a CO2 incubator. 60 μl of culture medium was removed, to which was added 60 μl of Bio-Glo luciferase, followed by incubation for 10 min at RT. Plates were read in a luciferase plate reader (EnVision, PerkinElmer).
# mouse CRHR2 = test: CRH-induced luciferase reporter blocking assay, CHO-CRE-mCRHR2 cells; type: cell-based
# Experimental: as §1, with “stimulation. […]” for “stimulation.”
# as §2
# biotinylated CRH = biological target: T1, biotinylated CRH; test: Affinity determination with Octet; type: binding
# Experimental: Octet® Red 96e was used for affinity measurement. Octet® running buffer was prepared by diluting kinetics buffer 10× (Fortebio, Cat #18-1105) in PBS according to the manufacturer's instructions. Two columns of SA sensors (Fortebio, Cat #18-5019) were hydrated in running buffer for 10 mins, one for ligand capturing and the other for reference. Antibodies were 2-fold diluted and added into a 96-well plate. 30 nM biotinylated CRH (GL Biochem, Cat #784751) was captured by the first column of SA sensors for 20 seconds, while reference sensors were dipped into buffer wells. After a 60-second baseline step, sensors were dipped into analyte and buffer wells successively, with the association and dissociation time of 180 seconds and 800 seconds, respectively. Sensors were regenerated in glycine pH1.5 (Cytiva, Cat #BR-1003-54) before the next cycle. […] Signals of reference wells and reference sensors were subtracted by selecting “Double reference” before data fitting.
# [1] = biological target: T2, N-terminal region plus central region, central region only, central region plus C-terminal region of CRH (Homo sapiens, UniProt P06850); test: ELISA determining the binding region of CRH; conditions: dash = no binding
# T2 construct: N-terminal region plus the central region (CT biotin), the central region only (NT biotin or CT biotin)
# Experimental: Streptavidin (Thermo, Cat: 21125) was diluted in PBS to a concentration of 2 μg/ml. 100 μl of diluted streptavidin was added per well to ELISA microplates, and the plates were incubated overnight at 4° C. Plates were blocked with ELISA blocking solution (containing 2% w/v BSA, 0.05% (v/v) Tween-20, pH 7.4 PBS buffer) at 37° C. for 1 hour, and then incubated with 1 μg/mL N-terminal region plus the central region (CT biotin), the central region only (NT biotin or CT biotin), or the central region plus C-terminal region (NT biotin) of CRH for 1 hour at 37° C. Plates were then washed and incubated with diluted anti-CRH antibody (Ab) at 15 μg/ml (100 nM, 10 diluted, 8 points) for 1 hour at 37° C. Subsequently, plates were washed and incubated with HRP-conjugated goat anti-human IgG (H+L) antibody (Jackson, Cat: 109-035-088) at 37° C. for 1 hour. 100 μL of 3,3′,5,5′-tetramethylbenzidine (TMB) substrate (Biopanda, Cat: TMB-S-003) was added, and the plates were incubated at room temperature for 15 minutes. 100 μL of ELISA stopping solution (Solarbio, Cat #: C1058) was added to terminate the reaction, and the optical density at 450 nm (OD450 nm) was determined by an ELISA plate reader (Molecular Devices, Spectra max 384 plus).
# [2] = CHO-CRE-hCRHR2 cells, 0.1 nM CRH
molecule,measurement,setting,value
B1,IC50,human CRHR2; [2],2.32 nM
same,IC50,"mouse CRHR2; CHO-CRE-mCRHR2 cells, 5 nM CRH",2.74 nM
same,kdis,biotinylated CRH,<1e-07 s⁻¹
same,kon,biotinylated CRH,14700 M⁻¹ s⁻¹
B2,IC50,human CRHR2; [2],1.65 nM
same,IC50,"mouse CRHR2; CHO-CRE-mCRHR2 cells, 5 nM CRH",1.84 nM
same,kdis,biotinylated CRH,<1e-07 s⁻¹
same,kon,biotinylated CRH,302000 M⁻¹ s⁻¹
B3,IC50,human CRHR2; [2],2.08 nM
same,IC50,"mouse CRHR2; CHO-CRE-mCRHR2 cells, 5 nM CRH",1.98 nM
same,kdis,biotinylated CRH,<1e-07 s⁻¹
same,kon,biotinylated CRH,6840 M⁻¹ s⁻¹
B4,EC50,"[1]; central plus C-terminal region CRH peptide, NT-biotin (SEQ ID NO: 483), read-out: ELISA EC50 C-Ter-CRH (NT-Bion)",> 100 nM
same,EC50,"[1]; central region CRH peptide, CT-biotin (SEQ ID NO: 485), read-out: ELISA EC50 Central-CRH (CT-Bion)",> 100 nM
same,EC50,"[1]; central region CRH peptide, NT-biotin (SEQ ID NO: 484), read-out: ELISA EC50 Central-CRH (NT-Bion)",> 100 nM
same,kdis,biotinylated CRH,<1e-07 s⁻¹
same,kon,biotinylated CRH,126000 M⁻¹ s⁻¹
B5,IC50,human CRHR2; [2],0.244 nM
same,IC50,"human CRHR2; Table 9, hCRHR2",~2.18 nM
same,IC50,"mouse CRHR2; CHO-CRE-mCRHR2 cells, 5 nM CRH",0.849 nM
same,IC50,"mouse CRHR2; Table 9, mCrhr2",2.41 nM
same,kdis,biotinylated CRH,2.18e-07 s⁻¹
same,kon,biotinylated CRH,1.01e+06 M⁻¹ s⁻¹
